# Measurements reported in patent US20230287402A1 (University of Washington, published 2023).
# Biological target: T1, Di13_B2L2B4, cyclic pseudo-dihedral B component (construct number 2 of Table 3)
# T1 construct: also called cyclic B
# Assay: negative stain TEM, unlabelled construct
binder,measurement,value
"A component of design #13 (D3 homooligomer, designed from 1d2t) (designed binder, also called component A; dihedral A) MGHHHHHHGGLALVATGNDTTTKPDLYYLKNSEAINSLALLPPPPAVGSIAFLNDQAMYEQGRLLRNTERGKLAAEDANLSSGGVANAFSGAFGSPITEKDAPALHKLLTNMIEDAGDLATRSAKDHYMRIRPFAFYGVSTCNTTEQDKLSKNGSYPSGHTSIGWATALVLAEINPQRQNEILKRGYELGQSRVICGYHWQSDVDAARVVGSAVVATLHTNPEFQAQLIKAKIEFKQHQKEL",binding result,binds
